We go through 1 molecule from patent publication US20120288506A1 (Eli Lilly, published 2012).

In experiment [1] the target is T1, recombinant human c-Kit (rh-c-Kit) protein (R&D Systems) (human, UniProt P10721 26-520, limits assumed).
T1 construct: also called human c-Kit protein; human c-Kit (1.0 ug/ml)
As to the kind of experiment: blocking ELISA: CK6 pre-incubated with rh-c-Kit, added to SCF-coated wells. On the procedure: Purified mAbs can be also tested for their ability to block the binding of c-Kit and its ligand. […] Following washes, wells are blocked with 3% PBS/milk. […] Following several washes (3-5), a 1:1000 dilution of anti-human IgG-HRP conjugated antibody is added to the plates for one hour at room temperature. Plates are washed in 0.2% Tween-PBS and HRP substrate is added to each well and incubated until blue color is developed. Stop solution is added and absorbance is measured at 450 nm.

Experiment [2] addresses plasma membrane bound human c-Kit expressed by human tumor cells (Mo7e; also Malm-3M) (human, UniProt P10721 26-976). As to the kind of experiment: cell-based or functional assay.
Experiment [3] deals with T2, recombinant mouse c-Kit (rm-c-Kit; Gln26-Thr519) (R&D Systems) (mouse, UniProt P05532 26-519).
T2 construct: also called mouse c-Kit (1.0 ug/ml)
T2 sequence (looked up): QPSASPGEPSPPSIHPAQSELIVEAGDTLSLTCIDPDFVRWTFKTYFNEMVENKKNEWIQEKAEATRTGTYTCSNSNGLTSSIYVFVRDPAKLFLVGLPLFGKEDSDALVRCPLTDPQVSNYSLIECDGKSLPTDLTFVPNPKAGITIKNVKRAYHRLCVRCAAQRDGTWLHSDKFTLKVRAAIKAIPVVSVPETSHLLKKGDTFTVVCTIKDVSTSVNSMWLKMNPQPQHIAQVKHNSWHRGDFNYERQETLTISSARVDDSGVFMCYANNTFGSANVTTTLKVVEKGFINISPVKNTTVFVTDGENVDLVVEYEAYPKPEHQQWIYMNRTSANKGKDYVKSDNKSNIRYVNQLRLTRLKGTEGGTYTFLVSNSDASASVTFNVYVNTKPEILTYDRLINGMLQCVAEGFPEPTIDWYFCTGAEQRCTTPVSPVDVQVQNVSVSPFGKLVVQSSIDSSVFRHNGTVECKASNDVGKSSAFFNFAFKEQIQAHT
As to the kind of experiment: ELISA, plate coated with rm-c-Kit 1 ug/ml. On the procedure: (§1) The species binding specificity of anti-human c-Kit mAbs can be determined by measuring the reactivity of the antibodies to human, cynomolgus, and mouse c-Kit proteins in an ELISA. […] Following washes, wells are blocked with 3% PBS/milk. Serial dilutions of human anti-human-c-Kit mAbs are then added to the c-Kit-coated wells and allowed to incubate for two hours at room temperature. Following several washes, a 1:1000 dilution of anti-human IgG-HRP conjugated antibody is added to the plates for one hour at room temperature in order to detect bound human antibody. Plates are washed and HRP substrate is added to each well and incubated until blue color is developed. Stop solution is added and absorbance is measured at 450 nm.

Experiment [4] concerns the target T1, recombinant human c-Kit (rh-c-Kit) …. Briefly: SPR (BIAcore), rh-c-kit immobilized on CM5 chip, 25 C.
The target in experiment [5] is T3, cynomolgus c-Kit (cyno-c-Kit; Met1-His549 prepared recombinantly) (cynomolgus).
T3 construct: The printed range starts at Met1, so it includes the signal peptide of the expressed construct; also called cynomologus c-Kit; cynomolgus c-Kit (1.0 ug/ml)
Briefly: ELISA, plate coated with cyno-c-Kit 1 ug/ml. On the procedure:
as §1

For experiment [6], the target named is T4, plasma membrane bound mouse (p815) c-Kit expressed by mouse tumor cells (p815) (mouse, UniProt P05532 25-979).
T4 construct: whole, on cells; also called c-Kit on P815 cells
T4 sequence (P05532 25-979): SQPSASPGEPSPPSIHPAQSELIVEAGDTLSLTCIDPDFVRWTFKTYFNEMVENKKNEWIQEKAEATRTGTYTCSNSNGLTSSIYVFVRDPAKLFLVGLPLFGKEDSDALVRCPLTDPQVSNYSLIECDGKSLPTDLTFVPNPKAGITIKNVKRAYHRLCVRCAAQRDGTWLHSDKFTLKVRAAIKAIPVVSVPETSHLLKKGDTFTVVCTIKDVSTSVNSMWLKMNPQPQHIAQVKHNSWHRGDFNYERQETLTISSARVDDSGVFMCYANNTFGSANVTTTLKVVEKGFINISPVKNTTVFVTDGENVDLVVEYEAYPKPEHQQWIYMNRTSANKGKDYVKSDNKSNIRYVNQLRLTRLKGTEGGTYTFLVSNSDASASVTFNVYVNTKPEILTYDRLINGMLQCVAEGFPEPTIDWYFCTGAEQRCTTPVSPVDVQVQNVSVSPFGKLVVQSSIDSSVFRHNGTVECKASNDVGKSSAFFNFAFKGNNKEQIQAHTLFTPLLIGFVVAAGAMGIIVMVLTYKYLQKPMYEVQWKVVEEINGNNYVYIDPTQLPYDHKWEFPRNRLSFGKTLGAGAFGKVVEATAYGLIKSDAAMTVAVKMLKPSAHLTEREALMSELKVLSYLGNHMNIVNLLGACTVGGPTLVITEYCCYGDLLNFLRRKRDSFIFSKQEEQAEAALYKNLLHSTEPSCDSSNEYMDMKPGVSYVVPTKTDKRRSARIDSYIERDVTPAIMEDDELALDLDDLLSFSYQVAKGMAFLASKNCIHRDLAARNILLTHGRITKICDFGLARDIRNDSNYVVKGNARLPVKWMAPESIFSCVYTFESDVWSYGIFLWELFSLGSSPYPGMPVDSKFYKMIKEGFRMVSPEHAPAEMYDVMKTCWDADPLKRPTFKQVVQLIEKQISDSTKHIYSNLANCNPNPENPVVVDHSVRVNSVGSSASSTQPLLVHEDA
Briefly: flow cytometry on whole live P815 cells. The method, then: Species specificity of c-Kit mAbs can be further tested for their binding to plasma membrane bound c-Kit expressed on the surface of human Mo7e and mouse P815 cells based on the flow cytometry analysis (see, e.g., WO2004/007735). Briefly, whole, live human Mo7e and mouse P815 cells are serum starved overnight, washed 3 times in cold blocking buffer (5% FBS in PBS), and then resuspended in 100 μl of blocking buffer. An anti-c-Kit antibody is added at 1.0 μg/ml and the mixture is incubated for 30 minutes at 4° C. A secondary fluorescence-conjugated antibody (Jackson ImmunoResearch) is added at 1.0 μg/ml to detect human antibody bound to the cell surface via flow cytometry analysis.

Experiment [7] has as its target T1, recombinant human c-Kit (rh-c-Kit) …. Briefly: ELISA, plate coated with rh-c-Kit 1 ug/ml, anti-human IgG-HRP detection. On the procedure: Following washes, wells are blocked with 3% PBS/milk. […] Plates are washed and HRP substrate is added to each well and incubated until blue color is developed. Stop solution is added and absorbance is measured at 450 nm.

T1 sequence (P10721 26-520 limits assumed): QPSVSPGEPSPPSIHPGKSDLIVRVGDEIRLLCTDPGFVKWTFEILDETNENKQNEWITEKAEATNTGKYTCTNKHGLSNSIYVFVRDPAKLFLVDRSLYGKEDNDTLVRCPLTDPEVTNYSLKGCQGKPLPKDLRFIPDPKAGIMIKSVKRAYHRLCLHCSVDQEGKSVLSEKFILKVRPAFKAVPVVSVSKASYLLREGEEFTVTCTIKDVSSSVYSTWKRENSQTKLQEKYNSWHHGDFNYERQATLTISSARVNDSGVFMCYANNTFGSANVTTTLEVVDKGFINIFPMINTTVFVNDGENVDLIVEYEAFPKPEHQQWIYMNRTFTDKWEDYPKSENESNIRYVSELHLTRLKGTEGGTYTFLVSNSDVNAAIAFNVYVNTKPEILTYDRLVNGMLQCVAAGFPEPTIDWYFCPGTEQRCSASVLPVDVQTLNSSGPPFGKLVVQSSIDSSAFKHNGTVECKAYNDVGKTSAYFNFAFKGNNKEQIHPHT
Sequence of plasma membrane bound human c-Kit expressed by human tumor cells (Mo7e; also Malm-3M) (P10721 26-976): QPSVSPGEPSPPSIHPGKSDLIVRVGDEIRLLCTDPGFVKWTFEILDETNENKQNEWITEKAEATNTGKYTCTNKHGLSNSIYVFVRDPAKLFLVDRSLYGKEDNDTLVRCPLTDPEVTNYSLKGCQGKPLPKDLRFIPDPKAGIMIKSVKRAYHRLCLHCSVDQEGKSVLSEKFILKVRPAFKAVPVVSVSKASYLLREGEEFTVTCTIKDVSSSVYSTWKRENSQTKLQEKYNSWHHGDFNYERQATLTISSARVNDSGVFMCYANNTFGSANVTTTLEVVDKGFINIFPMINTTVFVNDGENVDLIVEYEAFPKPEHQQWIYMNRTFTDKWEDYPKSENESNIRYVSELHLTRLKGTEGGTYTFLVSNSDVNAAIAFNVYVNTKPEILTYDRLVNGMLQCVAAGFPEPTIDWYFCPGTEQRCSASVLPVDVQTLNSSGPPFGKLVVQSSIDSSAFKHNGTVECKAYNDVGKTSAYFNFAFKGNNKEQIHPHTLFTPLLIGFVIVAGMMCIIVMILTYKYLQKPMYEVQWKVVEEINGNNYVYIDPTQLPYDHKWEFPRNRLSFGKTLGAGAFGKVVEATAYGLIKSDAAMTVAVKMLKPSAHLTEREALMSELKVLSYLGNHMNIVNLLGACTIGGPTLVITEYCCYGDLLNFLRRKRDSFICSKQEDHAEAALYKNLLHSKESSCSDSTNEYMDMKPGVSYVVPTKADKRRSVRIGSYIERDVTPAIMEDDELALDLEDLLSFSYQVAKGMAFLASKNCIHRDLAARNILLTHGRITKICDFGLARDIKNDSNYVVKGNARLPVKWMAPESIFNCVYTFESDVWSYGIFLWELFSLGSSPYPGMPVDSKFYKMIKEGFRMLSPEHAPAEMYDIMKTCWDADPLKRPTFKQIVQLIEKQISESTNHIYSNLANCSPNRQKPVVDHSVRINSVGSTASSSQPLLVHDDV

B1: anti-human c-Kit monoclonal antibody CK6 (antibody, human IgG1, kappa, V domains shown)
VH: QVQLVQSGAAVKKPGESLKISCKGSGYRFTSYWIGWVRQMPGKGLEWMGIIYPGDSDTRYSPSFQGQVTISAGKSISTAYLQWSSLKASDTAMYYCARHGRGYNGYEGAFDIWGQGTMVTVSS
VL: AIQLTQSPSSLSASVGDRVTITCRASQGISSALAWYQQKPGKAPKLLIYDASSLESGVPSRFSGSGSGTDFTLTISSLQPEDFATYYCQQFNSYPLTFGGGTKVEIKR
notes: also called mAb CK6; anti-c-Kit mAb CK6
As for B1, in experiment [1], the concentration for half-maximal inhibition (IC50) is roughly 40 pM. Moreover, the “IC50 of inhibition of c-Kit and MAPK phosphorylation in response to SCF in Mo7e ('Mole') leukemia cells, western blot” value in experiment [2] is 300 pM. Moreover, the values for the binding result in experiment [3] and in experiment [6] were “no binding” and “no binding (tested: 1.0 µg/ml)”, respectively. In addition, in experiment [4], the Kd turned out to be 66 pM. The values for the half-maximal effective concentration (EC50) in experiment [5] and in experiment [7] were 57 pM and roughly 30 pM, respectively.
